For this data set, the target named is T1, YlxR (Bacillus subtilis) (UniProt P32728).
T1 sequence: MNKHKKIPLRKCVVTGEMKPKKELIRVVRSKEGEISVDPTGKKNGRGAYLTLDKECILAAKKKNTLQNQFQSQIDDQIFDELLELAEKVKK
The experiment in a line: EMSA. As to conditions: 10 mM Tris-HCl pH 8.0, 100 mM KCl, 10 mM MgCl2, 1 mM DTT, 1 mM EDTA, 1 ug poly(dI-dC), 20 fmol probe in 20 ul, 15 min at 25 C; 6% native PAGE.

Four sequences from article PMC6504816 can be followed below.

As to “GGATATTCCATACCAATTCGATAAACTAGGAAGAGCACAAATAGGCATAAGCAGGGTTGAAAGGAGGTTTTGGTTC (double strand) [PthiL [-76/-1] M1]”, the binding result was “binds more weakly”.
The result for “CTGGATGATATGGCAGAGTGGGTGTCAAAAATTAAATAAAAGAACTATTTTTCTCTTTATACATTCACAGGCCGCCGAGATGTTCTCGACAGCCTTTTATTTTTGACTGCTGCGTGCAGACCCGCATCAAAAGAAATAATTTCAAAATCATTTGCTTCAG (double strand) [PtrmK [-295/-135] Wt]” reads “binds”; that for “CTGGATGATATGGCAGAGTGGGTGTACCAAATTAAATAAAAGAACTATTTTTCTCTTTATACATTCACAGGCCGCCGAGATGTTCTCGACAGCCTTTTATTTTTGACTGCTGCGTGCAGACCCGCATCAAAAGAAATAATTTCAAAATCATTTGCTTCAG (double strand) [PtrmK [-295/-135] M1]”, “binds”; that for “GGATATTCCAGCAAAATTCGATAAACTAGGAAGAGCACAAATAGGCATAAGCAGGGTTGAAAGGAGGTTTTGGTTC (double strand) [PthiL [-76/-1] Wt]”, “binds”.
